Target: MdtJ-His6 (Lawsonia intracellularis MdtJ, orphan, Cys-less)
Assay: size exclusion chromatography with densitometry of blot fractions
Conditions: parent: est. 36; read off a plot

Substance: FtsH-His6 (E. coli FtsH, wild type) (from UniProt P0AAI3) S2K; K6A; N7L; Q23L
- response: 11%

Reference: publication PMC13039401
